Experimental data as given in the supplement of paper PMC10567573.

Experiment: protein stability index of a GFP-peptide fusion (GPS, HEK-293T) (PSI 1-6); higher = more stable
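Further: lentivirally expressed fusions sorted by FACS into six bins by GFP to DsRed ratio, PSI derived from sequencing read proportions per bin multiplied by bin number.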

Protein: KAASLARNLAKRRRTYLGGAAGRS
- protein stability index (parent: IOH27062_2, c terminus: a fixed tail appended): 2.6

Protein: KKIFKSHLKSSRNSTSVKKKSSRN
- protein stability index (parent: IOH27142_36, c terminus: a fixed tail appended): 3.96

Protein: TSECPSDKDKSPESHKAKNESWIK
- protein stability index (parent: IOH27431_3, c terminus: a fixed tail appended): 3.1

Protein: AGGFQQRQGLKYCLPLTFCIHTGL
- protein stability index (parent: IOH26934_31, c terminus: a fixed tail appended): 2.73

Protein: MLWVQRKRRRKETSECPSDKDKSP
- protein stability index (parent: IOH27431_1, c terminus: a fixed tail appended): 2.93

Protein: CIQQILEAVLHCHQMGVVHRDLKP
- protein stability index (parent: IOH26807_20, c terminus: a fixed tail appended): 2.46

Protein: RALEEVEMKLQKNFLTQRENTIAG
- protein stability index (parent: IOH27431_29, c terminus: a fixed tail appended): 3.73

Protein: INPFTPDSLLLHSSGQCRRRKRTY
- protein stability index (parent: IOH27052_40, c terminus: a fixed tail appended): 3.35

Protein: KLLSVIVWMLMLLLAVPNIILTNQ
- protein stability index (parent: IOH27142_24, c terminus: a fixed tail appended): 3.1

Protein: LELKFVSSLRRQFEFSVDSFQIVL
- protein stability index (parent: IOH26845_27, c terminus: a fixed tail appended): 3.08

Protein: TRKLSPGKKRCKDIKRLLVNFMYL
- protein stability index (parent: IOH27102_46, c terminus: a fixed tail appended): 2.32

Protein: FNYSVGFKDLNESLNALEDQDLDA
- protein stability index (parent: IOH27581_8, c terminus: a fixed tail appended): 4.47

Protein: DEEERRRRVFDVPIRRRRCSRLF
- protein stability index (parent: IOH26934_79, c terminus: native): 2.81

Protein: PPEPLSQVSMWDQRWQDHQPLLPI
- protein stability index (parent: IOH27581_25, c terminus: a fixed tail appended): 3.15

Protein: QRLEEQERRHREEKERRKKQQWEI
- protein stability index (parent: IOH27062_61, c terminus: a fixed tail appended): 4.62

Protein: QPPEMIGPMRPEQFSDEVEPATPE
- protein stability index (parent: IOH27258_4, c terminus: a fixed tail appended): 5.04

Protein: ILLVGYPPFWDEDQHRLYKQIKAG
- protein stability index (parent: IOH26807_35, c terminus: a fixed tail appended): 2.33

Protein: HDPLWRRHCKKYWLISEEEKTQKN
- protein stability index (parent: IOH26934_9, c terminus: a fixed tail appended): 2.91

Protein: FVSIAQSEQESLLQQAQAQFRMAQ
- protein stability index (parent: IOH27102_133, c terminus: a fixed tail appended): 2.09

Protein: KLNCDPSRIYKPQTRLKRKQPVRK
- protein stability index (parent: IOH26584_53, c terminus: a fixed tail appended): 3.47

Protein: FQRAMHDYNQAEMKQRDNCKIRIQ [STX11 WT]
- protein stability index (parent: IOH27407_24, c terminus: a fixed tail appended): 2.68

Protein: GGFPIIRDQIFRYVHDPECVATTG
- protein stability index (parent: IOH26934_44, c terminus: a fixed tail appended): 1.75

Protein: SQVSMWDQRWQDHQPLLPITDVP
- protein stability index (parent: IOH27581_27, c terminus: native): 2.45

Protein: TNPDLIIVCAQSSQSLWNRLSVLL
- protein stability index (parent: IOH27102_112, c terminus: a fixed tail appended): 2.77

Protein: FQEAMTHLQHKLICTRKPEEIRGG
- protein stability index (parent: IOH26845_36, c terminus: a fixed tail appended): 2.91

Protein: QEKLQVLMAEGLLPAVKVFLDWLR
- protein stability index (parent: IOH27102_108, c terminus: a fixed tail appended): 2.44

Protein: LEAAEVILEHAHRGEQTTSQVSWE
- protein stability index (parent: IOH26591_31, c terminus: a fixed tail appended): 4.39

Protein: ADPVLDLPLPPPPPEPLSQVSMWD
- protein stability index (parent: IOH27581_23, c terminus: a fixed tail appended): 4.59

Protein: TFGDHHKDRRFAYGRSDVVVLCFS [RHOBTB1 WT]
- protein stability index (parent: IOH27118_15, c terminus: a fixed tail appended): 1.99

Protein: FIDTYSDVGRYIDHYAAIKKAWDD
- protein stability index (parent: IOH26934_14, c terminus: a fixed tail appended): 1.85

Protein: LQEPGVFSPTPPQQFQPAGTDQVC
- protein stability index (parent: IOH26591_36, c terminus: a fixed tail appended): 3.96

Protein: ITYPPGVKEISDKISKEEMVRRLK
- protein stability index (parent: IOH27247_3, c terminus: a fixed tail appended): 3.62

Protein: LWILHLLLECYIQYHHSKIRNRGY
- protein stability index (parent: IOH26789_18, c terminus: a fixed tail appended): 2.02

Protein: LPLPPPPPEPLSQVSMWDQRWQDH
- protein stability index (parent: IOH27581_24, c terminus: a fixed tail appended): 3.74

Protein: YCNFNKYIPRRLEEAAMQKCLVTE [RSAD1 WT]
- protein stability index (parent: IOH26922_10, c terminus: a fixed tail appended): 2.08

Protein: FSPDFTLRNTLKSTSEDSLVKQEC
- protein stability index (parent: IOH26921_45, c terminus: a fixed tail appended): 1.89

Protein: FWNIKQMWDTKTLGLRQHHCRKCG
- protein stability index (parent: IOH27506_50, c terminus: a fixed tail appended): 2.1

Protein: RPRRYVQPPEMIGPMRPEQFSDEV
- protein stability index (parent: IOH27258_3, c terminus: a fixed tail appended): 3.67

Protein: MTVKPAKAASLARNLAKRRRTYLG
- protein stability index (parent: IOH27062_1, c terminus: a fixed tail appended): 2.85

Protein: FISRTSIPNAASEEGDEDDWASNK
- protein stability index (parent: IOH27052_73, c terminus: a fixed tail appended): 4.02

Protein: GHSHHSHHGHPSHQSHSLPNRRH
- protein stability index (parent: IOH27431_35, c terminus: native): 2.57

Protein: YVKAKKSIDKDEEFAGSSPQSSKS
- protein stability index (parent: IOH26921_28, c terminus: a fixed tail appended): 3.04

Protein: KQTIGNSCKACGYRGMLDTHHKLC [EIF5 WT]
- protein stability index (parent: IOH27132_20, c terminus: a fixed tail appended): 3.1

Protein: TLVEAIKEQDGREVDWEYFYGLLF
- protein stability index (parent: IOH26584_46, c terminus: a fixed tail appended): 1.91

Protein: FIPAKTGKDVATQILEGELFDFDL
- protein stability index (parent: IOH27062_49, c terminus: a fixed tail appended): 1.77

Protein: LNAELEEKMMQEAEKLKAQGEYSR [CCDC89 WT]
- protein stability index (parent: IOH27358_17, c terminus: a fixed tail appended): 4.98

Protein: LELQRQREARKRALARKQAQEQLR
- protein stability index (parent: IOH27062_37, c terminus: a fixed tail appended): 3.77

Protein: VDVQTELYLEEIADRIIEVDMECQ
- protein stability index (parent: IOH27062_43, c terminus: a fixed tail appended): 2.16

Protein: FLGSSFSPVRCGGPGDASPRGCGA
- protein stability index (parent: IOH27052_23, c terminus: a fixed tail appended): 1.95

Protein: SAIYKWITDNFCYFRHADPTWQNS [FOXJ1 WT]
- protein stability index (parent: IOH27374_25, c terminus: a fixed tail appended): 2.69

Protein: IYKKYALQSAAGKDAAKQIAWIKD
- protein stability index (parent: IOH27247_70, c terminus: a fixed tail appended): 2.16

Protein: ILGKVILWILHLLLECYIQYHHSK
- protein stability index (parent: IOH26789_17, c terminus: a fixed tail appended): 2.97

Protein: LLIPKEDGVITASEDRTIRVWLKR
- protein stability index (parent: IOH27506_6, c terminus: a fixed tail appended): 2.04
